Laboratory results: the nanobody polyreactivity screen of Harvey et al. (2022)

Assay: yeast display, Sf9 membrane polyspecificity reagent, FACS + sequencing; frameworks hold sequencing errors
Method in brief: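 Sorting gates, low and high (top ~1%), were placed on anti-HA fluorescence to track expression and on streptavidin fluorescence to track reagent binding. A clone's polyreactivity label is taken from the gate it came out of. The reagent was 10% biotinylated, detergent-solubilized Sf9 membrane, applied for 1 hour at 4 °C to galactose-induced yeast display cells.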

Row | Sequence | polyreactivity (PSR sort gate)
1 | QVQLVESGGGIVQAGGSLRLTCAASGRTYTPYAMGWYRQAPGKERELVAAIDTSGGSTYADSVKGRFTISRDNAKNTVYLQMNSLKPEDTAVYYCATRGFYSWDYWYLWEYDYWGQGTQVTVSS | low polyreactivity
2 | QVQLVESGGGIVQAGGSLSLSCAASGFIIPSYTMGWYRQAPGKERDLVAGITQRGGSTYYADSVKGRFTISRDNAKNTVYLQMNSLNPEDTAVYYCARGISRGRSFGIGYDYWGQGTQVTLSS | low polyreactivity
3 | QVQLVESGGGIVQAGGSLSLSCAASGSTFYSYDMVWYRPAPGKERELVAAISWEGGRPYYADSVKGRFTISRDNAKNNVYLQMNSLKPEDTAVYYCADAYPTYRHYYWGQGTQVSVSS | low polyreactivity
4 | QVQLVESGGGIVQAGGSLSLSCRACGRSFAFYSMGWYRQEPGKERELVAAITRTGSTSYADSVNGRFTISRDNAKNTVYLQMNSLKPEDTAVYYCATVGYPYTLWHQMVYWGQGTQVTVSS | low polyreactivity
5 | QVQLVESGGGIVQAGRSLRLSCAASGNTFYLYAMGWYRQAPGKERELVATITSGGRTTYADSVKGRFTISRDNAKNTVYLQMNSLKPEDTAVYYCAARRVQYYGWGGMEYWGQGTQVTVSS | high polyreactivity
6 | QVQLVESGGGIVQAGRSLRLSCAASGRTFYYYVMGWYRQAPGKERELVAAISRGGRTYYADSVKGRFTISRDNAKNTVYLQMNSLKPEDTAVYYCNAVPRKSRHRYDYWGQGSQVTVSS | high polyreactivity
7 | QVQLVESGGGIVQAGVSLRLSCAASGGTLCTYAMGWYRQAPGKERELVASIDSGDSTYYADSVKGRFTISRDNAKNTVYLQMNSLKPEDTAVYYCAAAYFRRYTTTWYGYEYWGQGTQVTVSS | low polyreactivity
8 | QVQLVESGGGIVQARGSLRLSSAASGNIFRINGMGWSRQERGKERELVASITRSGSTYYADSVKGRFTISRDNAKNTVYLQMNILKPEDTAVYYCAADSSSYGVRFDYWGQGTQVTVSS | low polyreactivity
9 | QVQLVESGGGIVQVGRSLPISSAAYGRTFVYYAMGWYRQAPGKERELVARISRSGGRTFYADSVKGRFTISRDNAKNTVYLVLYSQKPEDTAVYYCNSSDVHVTTYGYWGQGTQVSVSS | low polyreactivity
10 | QVQLVESGGGKVQAGGSLRLSCAASGLTFSRYAMGWYRQAPGKERELVAAISGRGASTSYADSVKGRFTISRDNAKNTVYLQMNSLKPEDTAVYYCAAQKYYHSYLNRHYYWGQGTQVTVSS | high polyreactivity
11 | QVQLVESGGGKVQAGGSLRLSCAASGRIFPEYAMGWYRQAPGKERELVAAISSGDNTTYADSVKGRFTISRDNAKNTVYLQMNSLKPEDTAVYYCNAGSGTTGQGGPIIEYGYWGQGTQVTVSS | low polyreactivity
12 | QVQLVESGGGKVQAGGSLRLSCAASGRILHEYAMGWYRQAPGKERELVAAITFSGTSTYYADSVKGRFTISRDNAKNTVYLQMYSLKPEDTAVYYCAADTYGGSRDYWGQGTQVTVSS | low polyreactivity
13 | QVQLVESGGGKVQAGGSLRLSCAASGYTFKYYTMGWYRQAPGKERELLAAITRSGGSTYYADSVKGRFTISRDTAKNTVYLQMNSLKPEDTAFYYCAARASYKQPVSFDYWGQGTQVTVSS | high polyreactivity
14 | QVQLVESGGGLDHAGGSLRLSCAASGRTFLGYAMGWYRQAPGKERELVAAISSSGGSTYYADSVKGLFTISRDNAKNTVYLQTNSLKPEDTAVYYCAKRKPATCASGHRFGYWGQGTQVTVSS | high polyreactivity
15 | QVQLVESGGGLDLAGGSLRLSCASSGLTFFYYAMAWYRQAPGKEMEFVASISRSGGSTYYADSVKGRFTISRDNAKNTVSLQKNSLKPEDTAVYYCAAVERRTPGYGYDYWGQGTQVTVSS | high polyreactivity
16 | QVQLVESGGGLDQAGCSLRLSCAASGRIFYVYDMGWYRQAPGKERELVATITSSGDGTYYADSVKGRFTSSRDNAKNTVYLQMNSLKPEDTAVYYCARRYFVRFVNPPYYYWGHGTQVTVSS | low polyreactivity
17 | QVQLVESGGGLDQAGGRLRLSCAASGRTFVYYAMGWYRQAPGKERELVATITRGGRTNYADSVKGRFTISRDNAKNTVYLQMNSLKPEDTAVYYCNARYSWWRSRVGSSHRPDGYWGQGTQVTVSS | high polyreactivity
18 | QVQLVESGGGLDQAGGRLRLSCAASGRTYSVKSMGWYRQAPGKERELVAAITSGGSTYYADSVKGRFTISRDNAKNTVYLQMNSLKPEDTAVYYCNAVGRLRRSRLRMDYWGQGTQVTVSS | high polyreactivity
19 | QVQLVESGGGLDQAGGRLRLSCAAYGSTFELYAMGWYRQAPGKERELVASITGDSTNYADSVKGRFTISRDNAKNTVYLQMNSLKPEDTAVYYCAAEYVPYYEYESWGQGTQVTVSS | low polyreactivity
20 | QVQLVESGGGLDQAGGSIRLSCAASGGTFKANAMGWYRQAPGKEREVVAAIRQTGGSTYYADSVKGRFTISRDNEKNTVYLQMNSLKPEDTAVYYCAAQSHRYWIYDYWGQCTQVTVSS | high polyreactivity
21 | QVQLVESGGGLDQAGGSLPLSCAASGFTFGHYAMGWYRQAPGKERELVAAISSGDRTYYADSVKGRFTISRDNAKNTVYLQMNSLKPEDTAVYYCAADGIYTYEYWGQGTQVTVSS | low polyreactivity
22 | QVQLVESGGGLDQAGGSLRLICDAYGSTFNWNAMGWYRQAPGKERELVAAISSGGSTNYADSVKGRFTISRDNAKNTVYLQMNSLKPEDTAVYYCARQHSRWYSGYKYNYWGQGTQVTVSS | high polyreactivity
23 | QVQLVESGGGLDQAGGSLRLIFAASGRTFYRYAMGLYRQAPGKERELVAAISVRGGSTYYADSVKGRFTISRDNAKNTVYLQMNSLKPEDTAVYYCDAEYVAPWYIGLEVTRLIYWGQGTQVTVSS | high polyreactivity
24 | QVQLVESGGGLDQAGGSLRLISAASGLTLRRYAMGWYRQAPGKERELVASINTGTSTKYADSVKGRFTISRDNAKNTDYLQLNSLKPEDTAFYYCAARPAAQGYGYWGQGTQVTVSS | high polyreactivity
25 | QVQLVESGGGLDQAGGSLRLSCAASGFIFGVSVMGWYRPAPGKERELVAAMSGRGGSTFYADSVKGRFTISRDNAKNTVYLQMNSLKPEDTAVYYCAAKSTGPSMDYWGQGTQVTVSS | high polyreactivity
26 | QVQLVESGGGLDQAGGSLRLSCAASGFIFQRYTLGWYRQAPGKERELVAAITSGGRTYYADSVKGRFTISRDNAKNTVYLQMNSLKPEDTAVYYCNARGRASRHSGYDYWGQGTQVTVSS | high polyreactivity
27 | QVQLVESGGGLDQAGGSLRLSCAASGFIFRYYAMGWYRQAPGKERELVAAISRNGGSTYYADSVKGRFTISRDIAKNTVYLQMNSLKPEDTAVYYCAALTGRERYDYWGQGTQVTVSS | high polyreactivity
28 | QVQLVESGGGLDQAGGSLRLSCAASGFIFVRNAMGWYRQPPGKERELVAAITRSGGSTSYADSVKGRFTISRDNAKNTVYLQMNSLKPEDTAVYYCASERYPWQLYWSYYGYYYWGQGTQVTVSS | high polyreactivity
29 | QVQLVESGGGLDQAGGSLRLSCAASGFTFAVYAMGWYRQAPAKERELVAAISRSGTRTYYADSVKGRFTISRDNAKNTVYLQMNSLKREDNAVYYCAADNYRHGYEYWGLGTQVTVSS | high polyreactivity
30 | QVQLVESGGGLDQAGGSLRLSCAASGFTFPGNAMGWYRQSPGKEREFVAGISRSGDSTYYADSVKGRFTISRDNAKNTVYLQMNSLKPEDTAVYYCAARNPYRYFYYYEYWGQGTQVTVSS | low polyreactivity
